Reference: patent US20040258688A1

Target: murine DEC-205 (mouse) (UniProt Q60767)
Assay: Alexa488-conjugated antibody (10 µg) injected s.c.; flow cytometry of CD11c+ cells

Sequence of UniProt Q60767 (Q60767 28-1723 S1283P limits assumed): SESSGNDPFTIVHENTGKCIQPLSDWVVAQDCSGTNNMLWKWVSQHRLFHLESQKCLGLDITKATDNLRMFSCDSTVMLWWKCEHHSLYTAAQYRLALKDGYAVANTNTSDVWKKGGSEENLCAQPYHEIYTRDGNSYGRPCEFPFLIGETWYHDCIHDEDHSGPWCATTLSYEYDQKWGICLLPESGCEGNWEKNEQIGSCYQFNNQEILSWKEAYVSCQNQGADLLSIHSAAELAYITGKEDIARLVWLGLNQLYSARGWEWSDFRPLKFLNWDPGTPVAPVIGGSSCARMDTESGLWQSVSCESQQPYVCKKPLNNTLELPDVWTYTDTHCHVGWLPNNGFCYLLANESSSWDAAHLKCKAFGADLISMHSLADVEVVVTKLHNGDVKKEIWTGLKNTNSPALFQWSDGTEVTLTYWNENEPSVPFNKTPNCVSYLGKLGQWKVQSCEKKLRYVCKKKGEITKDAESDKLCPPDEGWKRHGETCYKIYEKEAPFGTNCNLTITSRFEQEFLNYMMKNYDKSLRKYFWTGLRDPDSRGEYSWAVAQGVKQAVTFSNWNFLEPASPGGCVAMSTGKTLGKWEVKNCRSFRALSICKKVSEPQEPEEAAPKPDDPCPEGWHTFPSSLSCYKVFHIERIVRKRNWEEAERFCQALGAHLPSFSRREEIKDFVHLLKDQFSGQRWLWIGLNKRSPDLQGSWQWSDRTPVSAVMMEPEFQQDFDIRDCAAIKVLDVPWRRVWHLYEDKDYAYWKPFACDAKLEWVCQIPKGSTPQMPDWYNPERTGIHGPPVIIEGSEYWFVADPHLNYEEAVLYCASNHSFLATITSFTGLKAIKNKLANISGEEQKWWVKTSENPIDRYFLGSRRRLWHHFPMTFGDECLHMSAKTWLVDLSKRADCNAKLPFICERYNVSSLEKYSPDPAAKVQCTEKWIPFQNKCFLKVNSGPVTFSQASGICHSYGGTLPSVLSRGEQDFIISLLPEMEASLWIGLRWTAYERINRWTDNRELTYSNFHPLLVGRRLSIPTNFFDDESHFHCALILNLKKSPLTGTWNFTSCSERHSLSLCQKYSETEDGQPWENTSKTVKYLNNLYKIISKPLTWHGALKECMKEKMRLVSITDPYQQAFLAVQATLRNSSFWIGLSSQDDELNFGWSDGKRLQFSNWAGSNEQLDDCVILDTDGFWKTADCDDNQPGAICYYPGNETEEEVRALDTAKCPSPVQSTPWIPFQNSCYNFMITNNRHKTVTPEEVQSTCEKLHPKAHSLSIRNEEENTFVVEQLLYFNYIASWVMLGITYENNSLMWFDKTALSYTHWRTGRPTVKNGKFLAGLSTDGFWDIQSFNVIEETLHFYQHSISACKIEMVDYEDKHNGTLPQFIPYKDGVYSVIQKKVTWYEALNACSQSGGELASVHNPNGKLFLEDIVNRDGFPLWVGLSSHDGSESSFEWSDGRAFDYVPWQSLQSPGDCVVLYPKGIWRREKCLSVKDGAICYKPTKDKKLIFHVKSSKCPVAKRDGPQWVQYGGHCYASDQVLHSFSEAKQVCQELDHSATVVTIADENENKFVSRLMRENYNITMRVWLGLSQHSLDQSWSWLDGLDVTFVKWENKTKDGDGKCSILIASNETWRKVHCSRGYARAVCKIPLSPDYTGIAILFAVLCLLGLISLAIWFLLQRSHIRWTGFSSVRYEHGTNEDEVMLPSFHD

- percent of distal lymph node DCs loaded with injected antibody at 6 hrs: 40%
- percent of draining lymph node DCs loaded with injected antibody at 6 hrs: > 50%
- percent of spleen DCs loaded with injected antibody at 6 hrs: 30%
Substance: NLDC-145 monoclonal antibody to DEC-205
